Legend:
[1] = biological target: human deoxyuridine 5′-triphosphate nucleotidohydrolase (dUTPase), nuclear isoform (human)
[2] = biological target: human deoxyuridine 5′-triphosphate nucleotidohydrolase (dUTPase), nuclear isoform (human); experiment: native MS; ESI-QTOF, positive mode; 5 mM NH4HCO3 pH 7.5; hDUT, Stl or both at ca. 0.5 µM monomer
[3] = biological target: Staphylococcal repressor protein Stl_(SaPIBov1) (Staphylococcus aureus) (UniProt Q9F0J8); experiment: as above
[4] = biological target: Staphylococcal repressor protein Stl_(SaPIBov1) (Staphylococcus aureus) (UniProt Q9F0J8); experiment: ITC; Stl in the cell, hDUT in the syringe; 20 °C; 20 mM HEPES pH 7.5, 300 mM NaCl, 5 mM MgCl2, 1 mM TCEP; one set of independent sites; mean and SD of three measurements; concentrations of protomers; apparent affinity
[5] = biological target: human deoxyuridine 5′-triphosphate nucleotidohydrolase (dUTPase), nuclear isoform (human); experiment: SAXS; batch measurements of hDUT (0.2-2.0 mg/mL) and of Stl (0.2-0.9 mg/mL) alone; 50 mM HEPES pH 7.5, 300 mM NaCl, 5 mM MgCl2; 20 °C in the text, 283 K in Table 1
[6] = biological target: human deoxyuridine 5′-triphosphate nucleotidohydrolase (dUTPase), nuclear isoform (human); experiment: SEC-SAXS; hDUT:Stl complex (100 µL at ~8 mg/ml) on an S200 Increase 10/300 column in 50 mM HEPES pH 7.5, 300 mM NaCl, 5 mM MgCl2, in line with SAXS; two regions of the peak analysed
[7] = biological target: Staphylococcal repressor protein Stl_(SaPIBov1) (Staphylococcus aureus) (UniProt Q9F0J8); experiment: as above
Stl (StlSaPIBov1) = Stl (StlSaPIBov1) (Staphylococcus aureus pathogenicity …, UniProt Q9F0J8 1-267); experiment: EMSA; no hDUT; 100 mM NaCl; […]; binding buffer pH not stated; settings: protein: recombinant; tags: GST-tag cleaved by thrombin, His-tag removed; N-terminal vector-derived extension remains; chain copies: 2; blunt

## Staphylococcal repressor protein Stl_(SaPIBov1) (from UniProt Q9F0J8 1-267) (natural protein)
[1]
  maximal inhibition of hDUT catalytic activity by Stl: 70%

## human deoxyuridine 5′-triphosphate nucleotidohydrolase (dUTPase), nuclear isoform (enzyme)
[2]
  stoichiometry N: 3
[3]
  stoichiometry N (hDUT:Stl (3:2)): 1.5
[4]
  Kd: 230 nM
  stoichiometry N (hDUT protomer per Stl protomer): 1.27
[5]
  stoichiometry N: 3
[6]
  stoichiometry N: 3
[7]
  stoichiometry N (hDUT:Stl (3:2, region 2)): 1.5
  stoichiometry N (hDUT:Stl (3:3, region 1)): 1

B1: interR 43 bp (dsDNA)
DNA 1: ATGTTGAAATAAATATCTCGATGTGAGATAATTTGTTCGAGGA
DNA 2: TCCTCGAACAAATTATCTCACATCGAGATATTTATTTCAACAT
Stl (StlSaPIBov1)
  binding result: binds

From paper PMC5847570, “Structural model of human dUTPase in complex with a novel proteinaceous inhibitor”
